In patent publication US20260226138A1, “COMBINATION TUMOR THERAPY WITH THROMBOSIS INITIATION AND PLATELET RECRUITMENT” (Wisconsin Alumni Research Foundation, priority 2022, published 2026):

What was measured:
[1] = target: integrin receptors on the angiogenic blood vessels in the tumor site; test: cell-based or functional assay
[2] = system: TM00096 human breast tumor PDX; test: Coagulation in PDX tumors, H&E staining; format: in vivo, mice; conditions: i.v. injection with PM-NP, 24 h
Description: Establishment of the PDX model: To establish the PDX model, TM00096 tumor samples were first propagated on Rag2-II2rg double knockout immunodeficient mice (R2G2® mice, 6-8 weeks, female) and then passaged to nude mice (6-8 weeks, female). Briefly, tumor tissues from R2G2® mice with TM00096 tumors were cut into small pieces, dispersed in the 1:1 mixture of DMEM medium and Matrigel® supplemented with FBS and antibiotics. The tiny tumor tissues were mixed well and placed on ice packs before being injected into the right flank of the nude mice using an 18-gauge needle (100 μL/mouse).
Next, it was determined if tTF-RGD can recruit PM-NP to tumor sites. To validate the translational potential of our treatment strategy, a clinically relevant PDX mouse model was established (FIG. 7C). TM00096 human breast tumor tissues were implanted on the flank of the immunodeficient mice. To affirm that systemic injection of tTF-RGD can initiate the tumor-selective coagulation on the PDX model, tTF+PM-NP or tTF-RGD+PM-NP were administered to the mice via i.v. injection as described above in the CT26-bearing mice model. Twenty-four hours later, the PDX tumors were collected and subjected to H&E staining. […] In order to visualize the tumor-selective accumulation of PM-NP, DiR dyes were encapsulated into NPs, which were further coated with platelet membranes. […]

[3] = system: PDX breast tumors; test: Recruitment of DiR-loaded PM-NP to PDX tumor (IVIS); format: in vivo, mice; conditions: ex vivo, 24 h, i.v. 1.25 mg/kg
Description: Recruitment of PM-NP by tTF-RGD-triggered coagulation: The recruitment of PM-NP to tumor sites by tTF-RGD-initiated coagulation was studied using IVIS. NPs were loaded with DiR and coated with platelet membranes. The PM-NP was washed three times with PBS to remove unreacted dyes. tTF or tTF-RGD was given at the dose of 1.25 mg/kg via i.v. injection to mice bearing PDX breast tumors. One hour later, 2 mg of NPs and PM-NPs were administered via i.v. injection. […] At 24 h, the mice were euthanized, and tumors were collected and visualized ex vivo.

[4] = system: CT26 subcutaneous tumor; test: Anti-tumor efficacy, subcutaneous CT26 model, local treating strategy; format: in vivo, Balb/C mice; conditions: tTF or tTF-RGD p.t. 0.4 mg/kg, aPD-1 1 mg/kg i.v., 3 doses
Description: (§1) Anti-tumor efficacy of tTF-RGD+P-aPD-1: To establish a subcutaneous CT26 colon cancer model, Balb/C mice (6-8 weeks, male) were subcutaneously inoculated with 1×10^6 CT26 cells on the right flank. When the tumor volume reached100-150 mm^3, the mice were received different treatments, including saline, aPD-1, tTF-RGD, P-aPD-1, tTF+P-aPD-1 and tTF-RGD+P-aPD-1. For the local treating strategy, tTF or tTF-RGD (0.4 mg/kg) was firstly given by p.t. injection. Half an hour later, P-aPD-1 was administered via i.v. injection at the dose of 1 mg/kg. The treatment was conducted every other day for 3 times in total. For the systemic treating strategy, tTF or tTF-RGD (1.25 mg/kg) was first given by i.v. injection. One hour later, P-aPD-1 was administered via i.v. injection at the dose of 0.3 mg/kg. The treatment was conducted every other day for 3 times in total. The antibodies used in other treatment groups are also given at an equivalent dose. The tumor growth (calculated as: length×width^2×0.5) and body weight were monitored every other day. Mice were euthanized once the tumor volume exceeded 2 cm^3.

[5] = system: CT26 tumors; test: Tumor coagulation by Cy5.5-labeled fibrinogen accumulation (IVIS); format: in vivo, mice
Description: To assess the tumor vasculature-coagulation triggered by tTF-RGD, fibrinogen was labeled with sulfo-Cy5.5-NHS ester and dialyzed against PBS to remove unreacted dyes. BSA, tTF or tTF-RGD were injected at the dose of 1.25 mg/kg via i.v. route to mice bearing CT26 tumors, followed by i.v. injection of 1 nmol of fibrinogen. […] At 24 h, the mice were euthanized, and tumors were collected and visualized ex vivo.

[6] = system: FX (proteolytic activation of FX by FVIIa); test: FX activation assay; format: biochemical; conditions: in the presence of factor VII (a) and Ca2+ ions
Description: The FX activation activity was tested using a modified procedure based on a previous report in the art. Briefly, to each well of a black 96-well plate was added 100 μL of BSA, tTF, and tTF-RGD with different concentrations in Tris-buffered saline containing 0.1% BSA. […] After 5 min of incubation at room temperature, FX (Haematologic Technologies, Inc.) was added to reach a final concentration of 30 nM and reacted for an additional 5 min. The reaction was quenched by addition of 20 μL of 100 mmol/L EDTA solution before 10 μL of 6-amino-1-naphthalenesulfonamide-based (ANSN) fluorogenic substrate (10 mM) (Haematologic Technologies, Inc.) was added to the mixture. Three minutes later, the fluorescence intensities were measured with a microplate reader (excitation=352 nm, emission=470 nm).

[7] = system: CT26 tumors; test: Recruitment of P-aPD-1 to tumor, p.t. injected protein (local strategy); format: in vivo, mice
Description: (§2) Recruitment of P-aPD-1 by tTF-RGD treatment: The recruitment of P-aPD-1 to tumor sites by tTF-RGD-initiated coagulation was studied using IVIS. P-aPD-1 was reacted with sulfo-Cy5.5-NHS ester at room temperature for 1 h and washed three times with PBS to remove unreacted dyes. For the local treating strategy, BSA, tTF, and tTF-RGD were given at the dose of 0.4 mg/kg via p.t. injection to mice bearing CT26 tumors, followed by i.v. injection of approximately 1×10^8 P-aPD-1 (aPD-1:1 mg/kg). For the systemic treatment strategy, BSA, tTF, and tTF-RGD were given at the dose 1.25 mg/kg via i.v. injection to mice bearing CT26 tumors, followed by i.v. injection of approximately 1×10^8 P-aPD-1 (aPD-1:1 mg/kg). […] At 24 h, the mice were euthanized, and tumors were collected and visualized ex vivo.

[8] = system: CT26 tumor-bearing mice; test: Coagulation after three i.v. doses, H&E of tumors and major organs; format: in vivo
Description: (§3) The coagulation initiation capability of tTF-RGD was investigated by treating CT26 tumor-bearing mice with 1.25 mg/kg of BSA, tTF, and tTF-RGD via intratumoral injection. Twenty-four hours later, the tumors were collected and subjected to H&E staining. To characterize the coagulation triggered by a lower dose of the tTF-RGD, 0.4 mg/kg of BSA, tTF, and tTF-RGD were administered into CT26 tumor-bearing mice via p.t. injection. Furthermore, mice bearing CT26 tumors were also treated with BSA, tTF and tTF-RGD (1.25 mg/kg) via i.v. injection every other day for 3 times in total. Twenty-four hours post injection of the last dose, the tumors and other major organs were collected and subjected to H&E staining.

[9] = system: CT26 subcutaneous tumor; test: Anti-tumor efficacy, subcutaneous CT26 model, systemic treating strategy; format: in vivo, Balb/C mice; conditions: tTF or tTF-RGD i.v. 1.25 mg/kg, aPD-1 0.3 mg/kg i.v., 3 doses
Description: as §1

[10] = system: CT26 tumor-bearing mice; test: Coagulation initiation after intratumoral injection, CT26 tumors; format: in vivo
Description: as §3

[11] = system: CT26 tumors; test: Recruitment of P-aPD-1 to tumor, i.v. injected protein (systemic strategy); format: in vivo, mice
Description: as §2

[12] = system: CT26 tumors; parameters: species or system mice; conditions: mouse, in vivo, iv, 1.25 mg/kg
Description: Tumor vasculature-targeting and coagulation initiating ability tTF-RGD: The tumor vasculature-targeting ability of tTF-RGD was investigated using IVIS. Briefly, tTF and tTF-RGD were labeled with sulfo-Cy5.5-NHS ester and dialyzed against PBS at 4° C. to remove unreacted dyes. Balb/C mice (6-8 weeks, male) were inoculated with 1×10^6 CT26 cells. When the tumor volumes reached 100-150 mm^3 (calculated as length×width^2×0.5), Cy5.5-labeled tTF or tTF-RGD were injected at the dose of 1.25 mg/kg via i.v. route to mice bearing CT26 tumors. […] At 24 h, the mice were euthanized, and tumors were collected and visualized ex vivo. The fluorescence was analyzed using Living Image Software v.4.3.1 (Perkin Elmer).

[13] = system: CT26 tumor-bearing mice; test: Coagulation after p.t. injection of lower dose, CT26 tumors; format: in vivo; conditions: 0.4 mg/kg
Description: as §3

Molecule: truncated tissue factor-Arg-Gly-Asp (RGD) fusion protein (tTF-RGD) (from UniProt P13726 33-250)
- mean fluorescence intensity (MFI) of tumor tissues ex vivo, 24 h after i.v. injection of Cy5.5-labeled protein, against the tTF group [1]: 1.62 fold

B1: tTF-RGD: fused protein of truncated tissue factor (extracellular domain of TF) and RGD motif; SEQ ID NO: 9 (protein)
chain: SGTTNTVAAYNLTWKSTNFKTILEWEPKPVNQVYTVQISTKSGDWKSKCFYTTDTECDLTDEIVKDVKQTYLARVFSYPAGNVESTGSAGEPLYENSPEFTPYLETNLGQPTIQSFEQVGTKVNVTVEDERTLVRRNNTFLSLRDVFGKDLIYTLYYWKSSSSGKKTAKTNTNEFLIDVDKGENYCFSVQAVIPSRTVNRKSTDSPVECMGQEKGEFRRGD
- coagulation in PDX tumor tissues (H&E) [2]: could induce coagulation in PDX tumor tissues without severe hemorrhage
- MFI of tumors, accumulation of PM-NP, increase versus tTF treatment [3]: 5.05 fold
- median survival time [4]: 30 days
- tumor growth inhibition [4]: negligible tumor-inhibiting activity
- accumulation of Cy5.5-fibrinogen in tumors ([5]; 24 h post i.v. injections, protein 1.25 mg/kg): strong signals
- MFI of Cy5.5-fibrinogen in tumors, increase compared with tTF group ([5]; ex vivo, 24 h, i.v. 1.25 mg/kg): 2.37 fold
- FX activation activity [6]: dose-dependent FX activation activity
- fluorescence signals of P-aPD-1 in tumor tissues, increase versus tTF group ([7]; ex vivo, 24 h, protein p.t. 0.4 mg/kg): 1.87 fold
- Rhodamine B-labeled P-aPD-1 fluorescence in resected tumors compared to BSA and tTF ([7]; p.t. injection): More fluorescence signals
- accumulation of Cy5.5-labeled P-aPD-1 at tumor site (imaging) ([7]; protein p.t. 0.4 mg/kg then i.v. P-aPD-1, from 4 h post injection): strong tendency to accumulate at the tumor site
- coagulation in tumor tissues (H&E) ([8]; 24 h after three doses of i.v. injection, 1.25 mg/kg): initiated apparent coagulation
- hemorrhage or thrombus in other major organs (H&E) ([8]; after 3 doses of i.v. injection): no obvious hemorrhage or thrombus in other major organs
- hemorrhage / thrombosis ([8]; i.v. 1.25 mg/kg every other day for three times, data not shown): did not induce severe hemorrhage but could trigger thrombosis
- median survival time [9]: 27 days
- hemorrhage and thrombus formation in tumors ([10]; 1.25 mg/kg, data not shown): significant hemorrhage and thrombus formation
- coagulation in tumors ([10]; 24 h post-injection): severe coagulation
- accumulation of P-aPD-1 in tumor tissues, increase versus tTF group ([11]; ex vivo, 24 h, protein i.v. 1.25 mg/kg): 1.89 fold
- Rhodamine B-labeled P-aPD-1 fluorescence in resected tumors compared to BSA and tTF ([11]; i.v. injection): More fluorescence signals
- distribution of Cy5.5-labeled P-aPD-1 at tumor sites (imaging) compared to tTF and BSA ([11]; protein i.v. 1.25 mg/kg then i.v. P-aPD-1, time-course): increased distribution of P-aPD-1 at the tumor sites
- mean fluorescence intensity (MFI) of tumor tissues relative to tTF group [12]: 1.62 fold
- tumor targeting ability, fluorescence signals at tumor site [12]: much stronger tumor targeting ability than tTF
- coagulation / hemorrhage in tumors [13]: effectively triggered obvious coagulation without severe hemorrhage
